PMC5296656

Molecular target: RpL4 (as it stands in the Acl4·RpL4 complex) (not stated (S. cerevisiae or C. thermophilum cDNA cloned))
Assay: SEC; Superdex 200 10/300 GL, 20 mM TRIS pH 8.0, 100 mM NaCl, 5 mM DTT; pre-incubation 1 h at 4 °C; fractions on SDS-PAGE, Coomassie

stoichiometry N (Acl4 per RpL4): 2
Substance: Acl4 (untagged, purified) (natural protein)
